Laboratory results reported in publication PMC4930772, “Crystal structure of a PP2A B56-BubR1 complex and its implications for PP2A substrate recruitment and localization” (Protein & Cell, 2016).
Where a chain is given by its changes, count along the chain named. In names and notes the source's numbering stands.

Molecular target: human PP2A B56γ1(30–380) (human, UniProt Q13362-2 30-380)
Test: ITC; B56γ1 in the cell at 0.03 mmol/L, BubR1 protein or peptide at 0.7 mmol/L injected (20 x 1.5 µL); room temperature; 20 mmol/L Tris-HCl pH 8.0, 200 mmol/L NaCl; one-site model
Conditions: both partners purified

B1: human BubR1(647–720)-3D (S670D/S676D/T680D) (domain or fragment)
chain: KTSEDQQTACGTIYSQTLSIKKLDPIIEDDREADHSSGFSGSSASVASTSSIKCLQIPEKLELTNETSENPTQS
notes: also called BubR1-3D; source: E. coli BL21 (DE3), purified (Glutathione Sepharose 4B, TEV cleavage, Hitrap Q HP)
- Kd: 2.27 ± 0.37 µM
- dH: -28.4 ± 0.83 kcal/mol
- stoichiometry N: 1.02 ± 0.02

B2: human BubR1(647–720; E678A/T680A/H681A) (domain or fragment)
chain: B1 chain with D24S, D30S, E32A, D34A, H35A
notes: also called BubR1-AAAA; source: E. coli BL21 (DE3), purified the same way as wild type
- Kd: 10.6 ± 1.72 µM
- dH: -9.74 ± 0.64 kcal/mol
- stoichiometry N: 1.02 ± 0.05
